Measured values: publication PMC5418834, “Structural analysis of X-linked retinoschisis mutations reveals distinct classes which differentially effect retinoschisin function” (Human Molecular Genetics, 2016)
Positions count from the first letter of the chain named. Names may count otherwise. “And” between values parts separate entries of the source, which are not always exact repeats. Identical values can stand only once. Blank lines part the entries; values can stand above or below the molecule they belong to.

Tests used:
[1] = biological target: wild-type human retinoschisin (human) (UniProt O15537); assay: SEC-MALS; octamer fraction; 10 mM Tris pH 7.4, 150 mM NaCl
[2] = biological target: wild-type human retinoschisin (human) (UniProt O15537); assay: native gel or EMSA; blue-native PAGE and native blot of purified retinoschisin (H207Q at ~0.1 mg/ml)
[3] = biological target: wild-type human retinoschisin (human) (UniProt O15537); assay: negative-stain EM; 20 µg/ml octamer on carbon coated grids, uranyl acetate, reference-free class averages
[4] = biological target: wild-type human retinoschisin (human) (UniProt O15537); assay: cryo-EM structure; 0.1 mg/ml of octamer vitrified on C-Flat R2/2 grids; C8 (wild type) or D8 (R141H) symmetry
[5] = biological target: wild-type human retinoschisin (human) (UniProt O15537); assay: AUC; sedimentation velocity of the octamer fraction, ~0.1 mg/ml, 10 mM Tris pH 7.4, 150 mM NaCl, 20°C, 45,000 rpm
[6] = biological target: the molecule itself; assay: SEC-MALS; octamer fraction; 10 mM Tris pH 7.4, 150 mM NaCl
[7] = biological target: the molecule itself; assay: native gel or EMSA; blue-native PAGE and native blot of purified retinoschisin (H207Q at ~0.1 mg/ml)
[8] = biological target: the molecule itself; assay: negative-stain EM; 20 µg/ml octamer on carbon coated grids, uranyl acetate, reference-free class averages

stoichiometry N [1]: 8
stoichiometry N [2]: 8 and 16
stoichiometry N [3]: 8
stoichiometry N [4]: 8 and 16
stoichiometry N [5]: 8
Molecule: wild-type human retinoschisin (from UniProt O15537 24-224) (natural protein)

B1: R141H human retinoschisin (natural protein, UniProt O15537 24-224, looked up)
chain: STEDEGEDPWYQKACKCDCQGGPNALWSAGATSLDCIPECPYHKPLGFESGEVTPDQITCSNPEQYVGWYSSWTANKARLNSQGFGCAWLSKFQDSSQWLQIDLKEIKVISGILTQGHCDIDEWMTKYSVQYRTDERLNWIYYKDQTGNNRVFYGNSDRTSTVQNLLRPPIISRFIRLIPLGWHVRIAIRMELLECVSKCA
notes: retinoschisin, human, product of the RS1 gene, with the XLRS-associated mutation R141H; Disease-causing (XLRS) mutation that occurs in patients; Same construct as m1 apart from the mutation; also called R141H retinoschisin; R141H mutant
stoichiometry N [6]: 8
stoichiometry N [7]: 16

B2: H207Q human retinoschisin (natural protein, UniProt O15537 24-224, looked up)
chain: B1 chain with H118R, H184Q
notes: retinoschisin, human, product of the RS1 gene, with the XLRS-associated mutation H207Q; Disease-causing (XLRS) mutation that occurs in patients; Same construct as m1 apart from the mutation; also called H207Q retinoschisin; H207Q mutant
stoichiometry N [7]: 16
stoichiometry N [8]: 8
